{"source": "paper PMC2576564", "about": "(Frontiers in Molecular Neuroscience, 2008)", "molecular_target": "the molecule itself", "test": "SEC; Superdex 200 16/60 column, after Ni-NTA purification of the secreted protein", "data": [{"protein": "extracellular domain of human DPP6-L (residues 117–865) (domain or fragment, glycosylated) not shown", "values": [{"measurement": "stoichiometry N", "value": 2}]}]}
